Test results taken from US20140031526A1 (YISSUM RESEARCH DEVELOPMENT COMPANY OF THE HEBREW …, published 2014).

Biological target: the molecule itself
Experiment: FPLC gel filtration before and after sonication (self-association)

B1: 6H-15mer-CBD fusion protein (dragline spider silk 15mer fused to Clostridium cellulovorans CBDclos, with His tags and S-tag) (other)
chain: MHHHHHHSSGLVPRGSGMKETAAAKFERQHMDSPDLGTDDDDKAMASGRGGLGGQGAGAAAAAGGAGQGGYGGLGSQGTSGRGGLGGQGAGAAAAAGGAGQGGYGGLGSQGTSGRGGLGGQGAGAAAAAGGAGQGGYGGLGSQGTSGRGGLGGQGAGAAAAAGGAGQGGYGGLGSQGTSGRGGLGGQGAGAAAAAGGAGQGGYGGLGSQGTSGRGGLGGQGAGAAAAAGGAGQGGYGGLGSQGTSGRGGLGGQGAGAAAAAGGAGQGGYGGLGSQGTSGRGGLGGQGAGAAAAAGGAGQGGYGGLGSQGTSGRGGLGGQGAGAAAAAGGAGQGGYGGLGSQGTSGRGGLGGQGAGAAAAAGGAGQGGYGGLGSQGTSGRGGLGGQGAGAAAAAGGAGQGGYGGLGSQGTSGRGGLGGQGAGAAAAAGGAGQGGYGGLGSQGTSGRGGLGGQGAGAAAAAGGAGQGGYGGLGSQGTSGRGGLGGQGAGAAAAAGGAGQGGYGGLGSQGTSGRGGLGGQGAGAAAAAGGAGQGGYGGLGSQGTSMAATSSMSVEFYNSNKAAQTNSITPIIKITNTADSDLNLNDVKVRYYYTSDGTQGQTFWGDHAGALLGNSYVDNTGKVTANFVKETASPTSTYDTYVEFGFASGAATLKKGQFITIQGRITKSDWSNYAQTNDYSFDASSSTPVVNPKVTGYIGGAKVLGTAPGPDVPSSIINPTSATFDLEHHHHHH
notes: Expressed in E. coli BL21(DE3) from pET30a and purified on Ni-NTA; also called Silk-CBD; 6H-Silk-CBD
Does B1 bind?
Result: binds
